The text below walks through data of patent publication US20030013152A1 (University of Texas, published 2003).

Experiment [1] deals with T1, TFIIAα/β/γ: recombinant rat TFIIAα/β (p55) together with recombinant rat TFIIAγ (p12) (rat, UniProt O08949 1-377; O08950 1-109).
T1 construct: also called TFIIAα/β (p55) and TFIIAγ (p12)
T1 sequence (looked up) 1: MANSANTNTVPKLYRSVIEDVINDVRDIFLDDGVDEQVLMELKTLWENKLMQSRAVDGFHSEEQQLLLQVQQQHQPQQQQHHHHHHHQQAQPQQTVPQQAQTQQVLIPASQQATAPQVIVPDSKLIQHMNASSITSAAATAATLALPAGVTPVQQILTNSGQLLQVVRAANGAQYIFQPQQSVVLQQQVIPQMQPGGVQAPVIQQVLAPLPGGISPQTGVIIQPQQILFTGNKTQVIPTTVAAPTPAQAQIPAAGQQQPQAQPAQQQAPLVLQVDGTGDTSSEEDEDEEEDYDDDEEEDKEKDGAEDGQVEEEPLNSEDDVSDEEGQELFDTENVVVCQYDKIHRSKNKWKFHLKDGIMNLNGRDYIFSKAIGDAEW
T1 sequence (looked up) 2: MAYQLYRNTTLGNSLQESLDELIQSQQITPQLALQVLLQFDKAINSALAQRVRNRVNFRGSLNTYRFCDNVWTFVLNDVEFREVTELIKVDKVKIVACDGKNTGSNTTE
Put plainly: electrophoretic mobility shift assay on labelled AdML TATA oligonucleotide, under conditions in which TBP alone does not bind DNA. The protocol: (§1) Mobility shift assays were performed using 10 fmol of a [γ-³²P] ATP kinase-labeled TATA-containing an oligonucleotide that spans nucleotides −40 to −16 of the Adenovirus Major Late (AdML) promoter. Binding reactions (25 μl final volume) were performed in 10 mM HEPES (pH 7.9), 2% (wt/vol) PEG-8000, 60 mM KCl, 5 mM DTT, 0.2 mM EDTA, 5 mM ammonium sulfate, 4 mM MgC1₂, and 8% glycerol. Recombinant rat p55 (30 ng; 29 nM), rat p12 (1.1 ug; 3.5 uM), human ALF (180 ng; 137 nM) and human TBP (125 ng; 133 nM) were added to reactions as indicated. Reactions were incubated for 30 minutes at room temperature, and complexes are separated on native 5% polyacrylamide gels containing 0.5×TBE and 5% glycerol. Competition experiments contain either cold AdML TATA or SP1 oligonucleotides, and antibody supershift reactions contain 2-4 μl of rabbit polyclonal antiserum raised against the 55 kD hTFIIAα/β polypeptide (3).
(§2) The activity of polypeptides was tested in electrophoretic mobility shift assays under conditions in which TATA-Binding Protein (TBP) alone is unable to bind DNA (FIG. 12B, lane 1). The presence of TFIIAα/β (p55) and TFIIAγ (p12) stabilized the TBP-DNA interaction via TFIIAα/β/γ-TBP-DNA complex formation (lane 2). Likewise, the recombinant ALF (p69) polypeptide, in conjunction with the TFIIAγ (p12) subunit, was able to form ALF/γ-TBP-DNA complexes (lane 5). […]
A general note: In EMSA bound probe runs differently from free probe, usually more slowly.

For experiment [2], the target named is T2, ALF/γ: recombinant human ALF (p69) together with recombinant rat TFIIAγ (p12) (human; rat, UniProt O08950 1-109).
T2 construct: also called ALF (p69) and TFIIAγ (p12)
T2 sequence 1: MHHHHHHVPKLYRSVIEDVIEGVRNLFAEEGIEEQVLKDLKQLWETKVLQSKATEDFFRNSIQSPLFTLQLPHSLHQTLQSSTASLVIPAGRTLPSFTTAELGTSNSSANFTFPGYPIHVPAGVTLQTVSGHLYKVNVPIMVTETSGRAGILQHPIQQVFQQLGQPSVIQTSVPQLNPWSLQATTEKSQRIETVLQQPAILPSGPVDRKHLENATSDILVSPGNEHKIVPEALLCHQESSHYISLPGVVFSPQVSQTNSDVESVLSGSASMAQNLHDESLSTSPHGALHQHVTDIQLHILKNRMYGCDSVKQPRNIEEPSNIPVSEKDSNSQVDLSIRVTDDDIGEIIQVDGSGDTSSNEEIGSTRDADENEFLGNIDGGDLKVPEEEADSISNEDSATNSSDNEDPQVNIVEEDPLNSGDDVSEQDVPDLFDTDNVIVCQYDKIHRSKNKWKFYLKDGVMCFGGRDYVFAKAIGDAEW
T2 sequence 2: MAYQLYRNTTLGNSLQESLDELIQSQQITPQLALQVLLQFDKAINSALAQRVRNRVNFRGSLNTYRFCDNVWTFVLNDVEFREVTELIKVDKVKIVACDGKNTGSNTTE
The experiment is described as above. The protocol: as §1, §2

Experiment [3] deals with T3, recombinant histidine-tagged human ALF (TFIIAα/β-like factor) polypeptide, residues Val7 to Trp478 (human, UniProt Q9UNN4 7-478).
T3 construct: 479 amino acid polypeptide expressed in E. coli from pRSET-ALF, purified under denaturing conditions on Ni-NTA and renatured; migrates at 69 kD; also called p69; p69 (ALF)
T3 sequence: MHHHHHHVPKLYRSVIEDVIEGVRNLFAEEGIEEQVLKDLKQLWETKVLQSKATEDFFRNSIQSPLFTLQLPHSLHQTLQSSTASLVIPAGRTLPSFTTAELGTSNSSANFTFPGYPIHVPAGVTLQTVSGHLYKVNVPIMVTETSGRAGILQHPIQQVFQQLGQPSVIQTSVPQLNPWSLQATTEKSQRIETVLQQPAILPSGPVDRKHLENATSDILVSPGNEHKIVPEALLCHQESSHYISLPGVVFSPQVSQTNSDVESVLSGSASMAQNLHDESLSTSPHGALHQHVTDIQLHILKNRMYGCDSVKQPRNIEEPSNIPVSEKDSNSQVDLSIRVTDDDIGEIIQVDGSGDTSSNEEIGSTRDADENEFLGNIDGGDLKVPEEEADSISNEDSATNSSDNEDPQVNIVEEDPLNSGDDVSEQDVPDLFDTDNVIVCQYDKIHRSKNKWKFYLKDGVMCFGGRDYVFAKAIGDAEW
The experiment in a line: electrophoretic mobility shift assay; both subunits stand in one complex with TBP and DNA. The protocol:
as §1, §2

For experiment [4], the target named is T4, recombinant rat TFIIAα/β (p55) subunit (rat, UniProt O08949 1-377).
T4 construct: also called rat p55
T4 sequence (looked up): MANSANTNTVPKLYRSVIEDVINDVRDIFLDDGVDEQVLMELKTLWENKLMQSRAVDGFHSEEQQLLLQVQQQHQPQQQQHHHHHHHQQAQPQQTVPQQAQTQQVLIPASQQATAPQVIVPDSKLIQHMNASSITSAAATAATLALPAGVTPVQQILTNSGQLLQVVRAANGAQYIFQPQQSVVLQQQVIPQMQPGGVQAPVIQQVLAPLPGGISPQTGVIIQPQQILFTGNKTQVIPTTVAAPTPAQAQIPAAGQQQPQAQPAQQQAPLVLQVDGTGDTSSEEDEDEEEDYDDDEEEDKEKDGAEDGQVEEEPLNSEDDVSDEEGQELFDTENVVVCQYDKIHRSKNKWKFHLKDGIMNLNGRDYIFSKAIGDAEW
The description is as above. The protocol: as §1, §2

B1: recombinant histidine-tagged human TATA binding protein (TBP) (other, UniProt P20226 1-339, looked up)
chain: MDQNNSLPPYAQGLASPQGAMTPGIPIFSPMMPYGTGLTPQPIQNTNSLSILEEQQRQQQQQQQQQQQQQQQQQQQQQQQQQQQQQQQQQQQQQQAVAAAAVQQSTSQQATQGTSGQAPQLFHSQTLTTAPLPGTTPLYPSPMTPMTPITPATPASESSGIVPQLQNIVSTVNLGCKLDLKTIALRARNAEYNPKRFAAVIMRIREPRTTALIFSSGKMVCTGAKSEEQSRLAARKYARVVQKLGFPAKFLDFKIQNMVGSCDVKFPIRLEGLVLTHQQFSSYEPELFPGLIYRMIKPRIVLLIFVSGKVVLTGAKVRAEIYEAFENIYPILKGFRKTT
notes: In the mobility shift assay TBP stood together with a labelled AdML TATA oligonucleotide (-40 to -16); also called human TBP; not shown: histidine tag
As for B1, the binding result in experiment [1] and in experiment [2] was “binds” throughout.

B2: recombinant rat TFIIAγ (p12) subunit (other, UniProt O08950 1-109, looked up)
chain: MAYQLYRNTTLGNSLQESLDELIQSQQITPQLALQVLLQFDKAINSALAQRVRNRVNFRGSLNTYRFCDNVWTFVLNDVEFREVTELIKVDKVKIVACDGKNTGSNTTE
notes: also called rat p12; p12 (TFIIAγ)
For B2, the binding result in experiment [3] and in experiment [4] was “binds” throughout.
